Molecular target: human IGF2R extra-cellular domains 1-15 I1572A fused at the C-terminal to rat CD4 (domains 3 + 4), biotin acceptor domain and histidine tag (human) (UniProt P11717)
Assay: SPR; BIAcore T200; about 1800 RU of biotinylated CD4-IGF2R fusion protein immobilised on a CM5 chip loaded with streptavidin; IGF2 256 to 0.125 nM injected for 200 s, 25 °C, 40 μl/min, HBS-EP; 1:1 binding model and steady state analysis

Sequence of human IGF2R extra-cellular domains 1-15 I1572A fused at the C-terminal to rat CD4 (domains 3 + 4), biotin acceptor domain and histidine tag (human) (P11717 41-2304 I1572A): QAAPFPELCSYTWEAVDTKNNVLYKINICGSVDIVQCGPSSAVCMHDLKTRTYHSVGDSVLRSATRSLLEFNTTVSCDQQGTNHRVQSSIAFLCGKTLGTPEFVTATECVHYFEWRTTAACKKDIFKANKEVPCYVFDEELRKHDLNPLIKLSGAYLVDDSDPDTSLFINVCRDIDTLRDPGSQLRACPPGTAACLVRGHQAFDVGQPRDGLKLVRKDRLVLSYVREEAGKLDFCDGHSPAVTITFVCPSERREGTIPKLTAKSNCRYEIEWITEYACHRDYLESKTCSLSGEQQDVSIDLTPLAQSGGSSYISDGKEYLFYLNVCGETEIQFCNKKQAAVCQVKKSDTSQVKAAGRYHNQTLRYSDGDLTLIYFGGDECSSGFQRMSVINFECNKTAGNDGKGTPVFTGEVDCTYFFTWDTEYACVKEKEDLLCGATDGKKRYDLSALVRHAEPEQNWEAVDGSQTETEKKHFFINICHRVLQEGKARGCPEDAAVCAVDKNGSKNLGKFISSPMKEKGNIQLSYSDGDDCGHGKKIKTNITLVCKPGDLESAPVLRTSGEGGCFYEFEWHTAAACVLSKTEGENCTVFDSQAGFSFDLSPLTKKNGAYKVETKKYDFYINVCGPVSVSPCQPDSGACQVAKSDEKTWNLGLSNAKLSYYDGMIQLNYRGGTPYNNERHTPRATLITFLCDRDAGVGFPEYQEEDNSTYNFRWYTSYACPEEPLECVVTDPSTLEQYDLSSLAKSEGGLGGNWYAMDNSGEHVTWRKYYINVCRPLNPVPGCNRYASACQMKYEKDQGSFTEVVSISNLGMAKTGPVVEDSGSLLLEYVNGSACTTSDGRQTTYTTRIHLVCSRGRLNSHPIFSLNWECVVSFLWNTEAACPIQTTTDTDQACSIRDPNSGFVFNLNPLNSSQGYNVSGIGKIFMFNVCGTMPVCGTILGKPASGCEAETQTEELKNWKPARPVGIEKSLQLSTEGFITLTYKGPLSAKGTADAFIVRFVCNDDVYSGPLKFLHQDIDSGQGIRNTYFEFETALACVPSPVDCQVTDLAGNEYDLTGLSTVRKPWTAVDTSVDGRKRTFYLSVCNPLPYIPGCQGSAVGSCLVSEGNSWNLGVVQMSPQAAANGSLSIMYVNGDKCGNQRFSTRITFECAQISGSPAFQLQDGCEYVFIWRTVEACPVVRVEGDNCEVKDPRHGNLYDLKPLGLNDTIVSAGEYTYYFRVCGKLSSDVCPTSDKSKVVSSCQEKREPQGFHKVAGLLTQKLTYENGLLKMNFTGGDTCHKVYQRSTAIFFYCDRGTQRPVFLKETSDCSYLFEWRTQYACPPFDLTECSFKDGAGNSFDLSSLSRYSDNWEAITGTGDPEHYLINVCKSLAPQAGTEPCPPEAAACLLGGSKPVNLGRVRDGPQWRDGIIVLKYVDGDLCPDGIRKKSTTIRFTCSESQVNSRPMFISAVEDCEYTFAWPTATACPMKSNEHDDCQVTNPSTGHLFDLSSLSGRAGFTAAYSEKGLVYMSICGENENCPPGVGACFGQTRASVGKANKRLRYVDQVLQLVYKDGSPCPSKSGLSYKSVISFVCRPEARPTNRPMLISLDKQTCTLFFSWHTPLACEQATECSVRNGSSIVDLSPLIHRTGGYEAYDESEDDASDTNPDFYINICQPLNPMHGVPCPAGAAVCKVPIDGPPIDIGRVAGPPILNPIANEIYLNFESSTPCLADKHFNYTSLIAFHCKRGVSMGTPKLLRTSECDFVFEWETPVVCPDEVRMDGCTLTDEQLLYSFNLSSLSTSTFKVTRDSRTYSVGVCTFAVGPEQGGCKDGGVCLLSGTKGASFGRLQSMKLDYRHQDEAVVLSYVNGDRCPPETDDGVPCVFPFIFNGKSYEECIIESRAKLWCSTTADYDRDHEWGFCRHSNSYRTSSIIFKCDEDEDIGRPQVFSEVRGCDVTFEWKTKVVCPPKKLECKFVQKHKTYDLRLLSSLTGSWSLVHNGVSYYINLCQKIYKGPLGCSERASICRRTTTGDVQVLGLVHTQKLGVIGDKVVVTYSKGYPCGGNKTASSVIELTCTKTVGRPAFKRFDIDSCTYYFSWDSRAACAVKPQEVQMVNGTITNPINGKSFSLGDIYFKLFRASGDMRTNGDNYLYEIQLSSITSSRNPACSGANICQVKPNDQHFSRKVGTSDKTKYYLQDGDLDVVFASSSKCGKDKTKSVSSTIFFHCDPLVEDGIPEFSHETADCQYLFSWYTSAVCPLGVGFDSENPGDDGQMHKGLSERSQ

human IGF2 (ligand)
fold reduction of IGF2 binding against wild type: 100 fold

— publication PMC6684648
